# Assay results published in US20080213252A1, “METHODS OF TREATING ITCH” (priority 2007, published 2008).
# Legend:
# skin of volunteers = assay: Psychophysics: itch sensation after insertion of native or reconstituted cowhage spicules into skin; type: in vivo; conditions: human volunteers; autoclaved spicules soaked in the substance and dried
# Description: Reconstitution of spicules—Native spicules were inactivated by autoclaving for 1 hour and reconstituted with native and recombinant mucunains in the presence or absence of cysteine protease inhibitor, E64. Typically, 50 mg of inactivated spicules were mixed with 0.4 ml of 28 μM mucunain in a 2 ml microfuge tube, vortexed, and dried in a Speed-vac for 2 hours at room temperature. These spicules were then considered as ‘reconstituted’ with the protease alone. Spicules prepared in a similar manner but with E64 added at twice the concentration of mucunain, are considered reconstituted with the protease and the inhibitor.
# Psychophysics—These protocols were approved by the Yale University Human Investigation Committee. A row of 10 cowhage spicules were lightly pasted to the flattened end of a Weck-Cel surgical strip, spaced at 1 mm, and applied parallel to the surface of the skin at the mid-volar forearm. […] Every 30 sec, subjects rated the magnitude of each of three qualities of sensation: Itch, pricking/stinging, and burning using the Generalized Labeled Magnitude Scale (Bartoshuk et al. 2004) that employs appropriately placed intensity descriptors of “none”, “barely detectable”, “weak”, “moderate”, “strong”, “very strong” and, at the top of the scale, “the strongest sensation imaginable.” Voltages derived from each subject's movements of a computer mouse that controlled a cursor on a visual representation of this scale were converted to numbers between 0 and 100 and plotted for each quality at successive intervals of 30 s up to 20 min after the insertion of cowhage. […]
# The sensory effects of mucunain was further analyzed. […] 50 mg of the inactivated, dried spicules were then soaked in 0.05 ml of the filtered extract containing 0.07 mg of cysteine protease (as determined by non-interfering protein assay) with or without 3.5 micrograms of E-64. […]
# PAR4 = assay: PAR activation by cytoplasmic calcium release, ratiometric Fura-2 imaging, PAR4 transfected HeLa cells; type: cell-based, human; conditions: Fura-2 340:380 ratiometric imaging
# Description: PAR activation observed by cytoplasmic calcium release—The four human PAR cDNAs were obtained from commercial sources and cloned into the pcDNA3.1 (−) vector (Invitrogen). HeLa cells were transfected with 10 μg of vector cDNA using Lipofectamine 2000 (Invitrogen) and cultured for two days in 96-well glass bottom plates at 30,000 cells/well. Cells were loaded with Fura-2 as follows. The medium was aspirated and replaced with 100 μl of complete DMEM containing 2 μM Fura-2 (Invitrogen) and kept at room temperature in the dark for 1 hr. The medium was again aspirated and each well received 90 μl of HEPES buffered saline (20 mM HEPES, 115 mM NaCl, 5.4 mM KCl, 2 mM CaCl2, 0.8 mM MgCl2, 13.8 mM glucose, pH 7.4). Plates were observed using a Zeiss Axiovert 200M microscope equipped with a filter wheel for monitoring excitation at 340 and 380 nm. Axiovision software, version 4.6 was used to analyze ratiometric calcium imaging of the cells. Ten μl of protease was applied approximately 20 seconds after the start of excitation. Images were taken every 5 seconds, beginning at time zero, for 3 minutes. The software was used to analyze the 37 images taken during each 3-minute period.
# casein = conditions: 12.5% native casein-zymogram gel, 0.1 μg of each mucunain
# Description: Zymogram—The zymogram of native and recombinant mucunain was carried out using a 12.5% native casein-zymogram gel as recommended by the supplier (Biorad). The zymogram gel was run with 0.1 μg of each of the mucunains, renatured and developed for protease activity overnight.
# [1] = native mucunain 0.9 μM, recombinant mucunain 2.7 μM; room temperature 1 hr; absorbance at 405 nm
# Description: Chromogenic substrate assay—Native and recombinant mucunain protease activity were measured in a buffer containing 50 mM sodium acetate (pH 5.5), 2.5 mM EDTA, 2.5 mM DTT, and 250 μg/ml Z-Phe-Arg-pNA as the chromogenic substrate. After adding protease, the reaction was incubated at room temperature for 1 hr. Generation of the yellow product, p-nitroaniline, was assayed by measuring the absorbance at 405 nm. Papain served as a control cysteine protease. E64, an irreversible inhibitor of cysteine proteases, was used at a concentration of 10 M. Experiments were performed in triplicate and the error bars represent standard deviation.
Molecule,itch evoked by substance loaded into inactivated spicules (skin of volunteers),calcium influx in PAR4 transfected HeLa cells (PAR4),protease activity in zymogram (casein),cleavage of chromogenic substrate Z-FR-pNA [1]
"papain: crystallized papain from Sigma, control cysteine protease (protein) IPEYVDWRQKGAVTPVKNQGSCGSCWAFSAVVTIEGIIKIRTGNLNEYSEQELLDCDRRSYGCNGGYPWSALQLVAQYGIHYRNTYPYEGVQRYCRSREKGPYAAKTDGVRQVQPYNEGALLYSIANQPVSVVLEAAGKDFQLYRGGIFVGPCGNKVDHAVAAVGYGPNYILIKNSWGTGWGENGYIRIKRGTGNSYGVCGLYTSSFYPVKN",produced itch,induced calcium influx,–,–
"recombinant mucunain: M. pruriens cysteine protease expressed in E. coli, refolded and activated (protein) DNLPESVDWRNESAVLPVKDQGNCGSCWAFSTIGAVEGINKIVTGDLISLSEQELVDCDTSYNQGCNGGLMDYAYEFIINNGGIDSEEDYPYRAVDGTCDQYRKNAKVVTIDSYEDVPANDELALKKAVANQPVSVAIEGGGREFQLYVSGVFTGRCGTALDHGVVAVGYGSVKGHDYWIVRNSWGASWGEEGYVRLERNLAKSRSGKCGIAIEPSYPIKNGANPPNPGPSPPSPVKPPNVCDNSYSCSDSATCCCIFEFQKYCMVWGCCPLEAATCCDDHYSCCPHEYPICNVRAGTCLKGKNNPFGVKALRRTPAKPHWAFGGKNKVNSA",did elicit itch,induced calcium influx,Protease activity was found,–
"mucunain: cysteine protease, itch-inducing component of spicules from M. pruriens (cowhage) (protein) DNLPESVDWRNESAVLPVKDQGNCGSCWAFSTIGAVEGINKIVTGDLISLSEQELVDCDTSYNQGCNGGLMDYAYEFIINNGGIDSEEDYPYRAVDGTCDQYRKNAKVVTIDSYEDVPANDELALKKAVANQPVSVAIEGGGREFQLYVSGVFTGRCGTALDHGVVAVGYGSVKGHDYWIVRNSWGASWGEEGYVRLERNLAKSRSGKCGIAIEPSYPIKNGANPPNPGPSPPSPVKPPNVCDNSYSCSDSATCCCIFEFQKYCMVWGCCPLEAATCCDDHYSCCPHEYPICNVRAGTCLKGKNNPFGVKALRRTPAKPHWAFGGKNKVNSA",evoked itch and nociceptive sensations,–,–,cleaves
